Source: patent publication US20260049134A1 (UNIVERSITY OF FLORIDA RESEARCH FOUNDATION, published 2026)

T1: GARS-His (Sino Biological) (human, UniProt P41250 37-739, limits assumed)
T1 construct: Bought; also called GARS1; glycyl-tRNA synthetase; not shown: His tag of the bought protein
T1 sequence: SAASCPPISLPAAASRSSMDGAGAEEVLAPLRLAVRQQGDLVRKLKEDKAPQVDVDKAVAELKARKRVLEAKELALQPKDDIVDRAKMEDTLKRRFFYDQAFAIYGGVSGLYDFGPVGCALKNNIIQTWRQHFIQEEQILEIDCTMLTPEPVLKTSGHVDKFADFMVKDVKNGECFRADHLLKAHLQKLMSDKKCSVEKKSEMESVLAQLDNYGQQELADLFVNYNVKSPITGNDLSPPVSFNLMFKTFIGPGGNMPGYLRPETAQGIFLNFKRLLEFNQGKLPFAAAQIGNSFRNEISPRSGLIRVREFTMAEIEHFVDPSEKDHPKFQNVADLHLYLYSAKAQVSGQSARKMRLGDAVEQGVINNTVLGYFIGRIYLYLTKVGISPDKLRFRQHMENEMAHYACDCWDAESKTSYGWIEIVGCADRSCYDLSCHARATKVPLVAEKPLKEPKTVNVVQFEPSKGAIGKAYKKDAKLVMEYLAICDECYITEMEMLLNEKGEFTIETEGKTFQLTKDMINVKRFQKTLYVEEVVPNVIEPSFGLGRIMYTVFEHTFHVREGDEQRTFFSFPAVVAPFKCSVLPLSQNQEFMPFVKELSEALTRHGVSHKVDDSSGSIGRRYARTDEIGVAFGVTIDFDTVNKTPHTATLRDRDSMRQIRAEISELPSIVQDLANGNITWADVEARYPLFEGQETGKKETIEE

T2: IL13RA1
T2 construct: coated protein in the ELISA; also called IL13RA1-Fc-His (R&D Systems)
T2 chain: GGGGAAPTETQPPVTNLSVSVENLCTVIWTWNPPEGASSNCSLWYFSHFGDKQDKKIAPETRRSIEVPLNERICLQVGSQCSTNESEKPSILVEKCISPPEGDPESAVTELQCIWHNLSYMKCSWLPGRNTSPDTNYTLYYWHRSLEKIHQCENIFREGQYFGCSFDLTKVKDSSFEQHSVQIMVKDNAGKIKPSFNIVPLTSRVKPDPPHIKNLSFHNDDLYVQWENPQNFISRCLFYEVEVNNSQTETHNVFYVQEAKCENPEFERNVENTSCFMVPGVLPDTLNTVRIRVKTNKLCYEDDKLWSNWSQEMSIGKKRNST

T3: IGSF11 (VSIG3)
T3 construct: coated protein in the ELISA; also called IGSF11-Fc (R&D Systems)
T3 chain: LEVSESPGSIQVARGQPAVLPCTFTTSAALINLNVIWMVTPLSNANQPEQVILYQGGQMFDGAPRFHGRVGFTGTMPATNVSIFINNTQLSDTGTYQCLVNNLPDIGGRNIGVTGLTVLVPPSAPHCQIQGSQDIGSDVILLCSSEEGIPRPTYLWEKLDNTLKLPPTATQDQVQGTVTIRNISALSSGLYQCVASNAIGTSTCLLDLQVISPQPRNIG

T4: HHLA2 (B7-H7)
T4 construct: coated protein in the ELISA; also called HHLA2-Fc (R&D Systems)
T4 chain: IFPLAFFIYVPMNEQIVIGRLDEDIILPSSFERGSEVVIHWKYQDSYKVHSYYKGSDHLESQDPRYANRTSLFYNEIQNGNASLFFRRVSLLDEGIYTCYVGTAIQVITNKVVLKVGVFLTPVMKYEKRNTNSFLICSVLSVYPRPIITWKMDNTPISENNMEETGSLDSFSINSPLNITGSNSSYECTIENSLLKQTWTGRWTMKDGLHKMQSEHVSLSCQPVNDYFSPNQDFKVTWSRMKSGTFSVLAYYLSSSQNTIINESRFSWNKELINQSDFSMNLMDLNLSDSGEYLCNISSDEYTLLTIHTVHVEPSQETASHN

T5: CADM1-His (Acro Biosystems) (human, UniProt Q9BY67 45-374)
T5 construct: Bought; also called CADM1/IGSF4A; not shown: His tag of the bought protein
T5 sequence: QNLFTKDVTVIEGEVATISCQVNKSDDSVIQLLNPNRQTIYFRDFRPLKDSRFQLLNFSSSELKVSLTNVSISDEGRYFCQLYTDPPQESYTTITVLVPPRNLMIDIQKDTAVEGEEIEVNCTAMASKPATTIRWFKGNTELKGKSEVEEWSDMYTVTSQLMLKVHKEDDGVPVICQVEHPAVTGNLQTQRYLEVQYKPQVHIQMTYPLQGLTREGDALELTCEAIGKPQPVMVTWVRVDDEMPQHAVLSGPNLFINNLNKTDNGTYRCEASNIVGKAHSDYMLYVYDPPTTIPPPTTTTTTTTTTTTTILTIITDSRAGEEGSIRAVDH


Key:
[1] = molecular target: T1, GARS-His (Sino Biological); test: ELISA on coated GARS-His, 150 ng IgG1; None 0.099
Protocol: (§1) Recombinant purified ECDs (50-150 ng) of each putative target protein were coated, incubated with 150 ng of the indicated primary antibody, and binding was detected using a peroxidase-conjugated anti-human Fab secondary antibody. Heatmap represents averages of technical triplicates. (8B) Target validation via siRNA knockdown. H929 cells were transfected with siRNA pools targeting the putative antibody targets ICAM1, CADM1, and PTPRG. Cells were then subjected to cognate IgG binding analysis via flow cytometry. (NT, non-targeting siRNA).
(§2) ELISA ELISA was conducted as described previously. Briefly, 50-150 ng of antigen was coated overnight in half-area 96-well plates at 4° C., blocked with 3% BSA at 37° C. for 1 h, and 150 ng of chimeric rabbit/human IgG1 was added, incubating for 2 h at 37° C. […] After incubating at 37° C. for 15 min-1 h (depending on intensity of controls), data were acquired using a SpectraMax M5 plate reader (Molecular Devices).

IL13RA1 = molecular target: T2, IL13RA1; test: ELISA on coated IL13RA1-Fc-His, 150 ng IgG1; None 0.094
Protocol: as §1, §2

APP = molecular target: T6, APP; test: ELISA on coated APP-His, 150 ng IgG1; None 0.092
T6 construct: His-tagged; coated protein in the ELISA; also called APP-His (Acro Biosystems)
Protocol: as §1, §2

IGSF11 (VSIG3) = molecular target: T3, IGSF11 (VSIG3); test: ELISA on coated IGSF11-Fc, 150 ng IgG1; None 0.090
Protocol: as §1, §2

HHLA2 (B7-H7) = molecular target: T4, HHLA2 (B7-H7); test: ELISA on coated HHLA2-Fc
Protocol: as §1, §2

[2] = molecular target: T5, CADM1-His (Acro Biosystems); test: ELISA on coated CADM1-His, 150 ng IgG1; None 0.059
Protocol: as §1, §2

Binder | ELISA Absorbance (405 nm-570 nm) [1] | ELISA Absorbance (405 nm-570 nm) (IL13RA1) | ELISA Absorbance (405 nm-570 nm) (APP) | ELISA Absorbance (405 nm-570 nm) (IGSF11 (VSIG3)) | binding result (HHLA2 (B7-H7)) | ELISA Absorbance (405 nm-570 nm) [2]
HW-97 chimeric rabbit-human IgG1 LA/LA/PG (antibody, V domains shown, Fc-silenced (L234A/L235A/P329G) IgG1, lambda; Alexa Fluor 647-labeled in single-step flow cytometry; Prototype of cluster C-97) VH: QKQLVESGGRLVTPGTPLTLTCTVTGIDLSSHGMSWVRQAPGKGLEWIGVIYPSGSTWYASWARGRFTISKTSTTVDLKMTSLTTEDTATHFCARGDVGGADNNIWGPGTLVTVSS VL: SFVLTQPASVQVDLGQTVSLTCTAETLSRSYASWYQQKPGQAPVLLIYRDTSRPSGVPDRFSGSSSGNTATLTISGAQAGDEADYYCATSDGSGSSYQYVFGGGTQLTVTG | 0.079 | 0.08 | 0.067 | 0.078 | no binding (tested: 150 ng IgG1 per well) | 0.679
HW-113 chimeric rabbit-human IgG1 LA/LA/PG (antibody, V domains shown, Fc-silenced (L234A/L235A/P329G) IgG1, lambda; Alexa Fluor 647-labeled in single-step flow cytometry) VH: QKQLVESGGGLVQPGGSLTLTCTVSGFSLNKYYMGWFRQAPGKGLEWIGVISRSGDTYYSSWAKGRFTISKASTTVDLRITSPTTEDTATYFCARDASSPGFHGDRLDLWGQGTLVTVSS VL: SFVLTQPASVQVNLGQTVSLTCTADTLSRSYASWYQQKPGQAPVLLIYRDTSRPSGVPDRFSGSSSGNTATLTISGAQAGDEADYYCATSDGIGSNYLWVFGGGTQLTVTG | 0.088 | 0.086 | 0.074 | 0.075 | no binding (tested: 150 ng IgG1 per well) | 0.058
HW-101 chimeric rabbit-human IgG1 LA/LA/PG (antibody, V domains shown, Fc-silenced (L234A/L235A/P329G) IgG1, lambda; Alexa Fluor 647-labeled in single-step flow cytometry; Cluster C-97) VH: QEQLVESGGRLVTPGTPLTLTCKASGFSLGKYDMSWVRQAPGKGLEWIGTIYAGSGSTWYASWAKGRFTISKTSTTVDLKMTSLTTEDTATYFCARDFLGVNSIWGPGTLVTISS VL: SFVLTQPASVQVNLGQTVSLTCTADTLSRSYASWYQQKPDQAPVLLIHRDTSRPSGVPDRFSGSNSGNTATLTISGAQAGDEADYYCATSDGSGSNFHFVFGGGTQLTVTG | 0.093 | 0.067 | 0.061 | 0.066 | no binding (tested: 150 ng IgG1 per well) | 0.525
HW-16 chimeric rabbit-human IgG1 LA/LA/PG (antibody, V domains shown, Fc-silenced (L234A/L235A/P329G) IgG1, kappa; Alexa Fluor 647-labeled in single-step flow cytometry; Cluster C-45) VH: QSLEESGGRLVTPGTPLTLTCTASGFSLSSYAMSWVRQAPGKGLEWIGTMPTGGGTYYASWAKGRFTISKTSTTVDLQITSPTTEDTATYFCAKHWNIWGPGTLVTISS VL: DIVLTQTPSSTSTAVGDTVTINCRASQSIGRNLAWFQQKPGQPPKLLIYRASNLASGVPSRFKGSGSRTQFTLTISGVQREDAATYYCLGSYSSSDTAFGGGTELEILR | 0.718 | 0.163 | 0.225 | 0.087 | no binding (tested: 150 ng IgG1 per well) | 0.067
HW-81 chimeric rabbit-human IgG1 LA/LA/PG (antibody, V domains shown, Fc-silenced (L234A/L235A/P329G) IgG1, lambda; Alexa Fluor 647-labeled in single-step flow cytometry; Cluster C-45) VH: QKQLVESGGGLVTPGGTLTLTCTVSGFSLSSNGVSWVRQAPGKGLEYIGLIRSIGSTYYATWAKGRFTISKTSTTVDLKITSPTTEDTATYFCARGGYRNGFKLWGPGTLVTVSS VL: QPVLTQSPSVSAALGASAKLTCTLSSAHKTYYIEWYQQQHPGKAPRYLMQLQSDGSYTKGTGVPDRFSGSSSGADRYLIISSVQAEDEADYICGVIDSAVYVFGGGTQLTVTG | 0.641 | 0.099 | 0.081 | 0.065 | no binding (tested: 150 ng IgG1 per well) | 0.05
HW-56 chimeric rabbit-human IgG1 LA/LA/PG (antibody, V domains shown, Fc-silenced (L234A/L235A/P329G) IgG1, kappa; Alexa Fluor 647-labeled in single-step flow cytometry; Cluster C-45) VH: QSVKESEGGLFKPTDTLTLTCTASGFTVSTNAVTWVRQAPGNGLEYIGTIGRSGSAYFASWAKRRSTLTRDINLNTVTLKMTSLTAADTATYFCVRGSPGYRTAISIWGPGTLVTISS VL: AVMTQTPSSTSAAVEGTVTINCQASQSISNRLSWFQQKPGQPPKLLIYQASTLASGVPSRFKGSGSGTEFTLTISGVQREDAATYYCLGSYSSSDASFGGGTKLEIKR | 0.651 | 0.16 | 0.112 | 0.076 | no binding (tested: 150 ng IgG1 per well) | 0.059
